From patent US20130210023, “NUCLEIC ACID […] AGAINST PLASMODIUM LACTATE DEHYDROGENASE AND HISTIDINE-RICH PROTEIN II AND USES […] FOR MALARIA DIAGNOSIS” (THE UNIVERSITY OF HONG KONG, published 2013)

Legend:
[1] = biological target: human lactate dehydrogenase A1 (hLDHA1) (Homo sapiens, UniProt P00338 P00338:1-332); assay: ITC; no binding by ITC, EMSA and SPR; no AuNP color change
[2] = biological target: human lactate dehydrogenase B (hLDHB) (Homo sapiens, UniProt P07195 P07195:2-334); assay: as above; details: tags: His tag (pET-28a, HisTrap purified); chain copies: 4; last 8 nt disordered; not G4
human lactate dehydrogenase B (hLDHB), sequence (P07195 2-334, one chain of several): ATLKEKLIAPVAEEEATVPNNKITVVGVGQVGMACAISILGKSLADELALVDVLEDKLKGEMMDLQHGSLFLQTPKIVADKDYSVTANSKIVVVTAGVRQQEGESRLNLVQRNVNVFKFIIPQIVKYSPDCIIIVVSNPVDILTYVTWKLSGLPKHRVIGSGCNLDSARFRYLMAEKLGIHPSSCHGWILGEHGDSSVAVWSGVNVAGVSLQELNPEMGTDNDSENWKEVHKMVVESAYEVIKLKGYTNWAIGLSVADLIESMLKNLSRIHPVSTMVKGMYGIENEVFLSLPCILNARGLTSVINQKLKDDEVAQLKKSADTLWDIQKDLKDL

[3] = biological target: T1, Plasmodium falciparum lactate dehydrogenase (PfLDH) (Plasmodium falciparum 3D7, UniProt Q76NM3 Q76NM3:1-316); assay: structure; crystal structure, two aptamers per PfLDH tetramer; contacts residues 102-108, Asp53, Ile54 (A) and Lys62, His250 (B); details: chain copies: 4 stated (tetramer in crystal); last 8 nt disordered; not G4
[4] = biological target: T1, Plasmodium falciparum lactate …; assay: ITC; nanomolar Kd, value only in figure; N=0.177; 25 mM Tris-HCl pH 7.5, 0.1 M NaCl, 20 mM imidazole, 25 C; details: chain copies: 4 stated (tetramer in crystal)
[5] = biological target: T1, Plasmodium falciparum lactate …; assay: ITC; nanomolar Kd, value only in figure; N=0.152; 25 mM Tris-HCl pH 7.5, 0.1 M NaCl, 20 mM imidazole, 25 C; details: chain copies: 4 stated (tetramer in crystal)
[6] = biological target: T1, Plasmodium falciparum lactate …; assay: ITC; nanomolar, similar Kd and stoichiometry to 2009s; same buffer, 25 C; details: chain copies: 4 stated (tetramer in crystal)
[7] = biological target: T1, Plasmodium falciparum lactate …; assay: ITC; nanomolar Kd, value only in figure; N=0.451; 25 mM Tris-HCl pH 7.5, 0.1 M NaCl, 20 mM imidazole, 25 C; details: chain copies: 4 stated (tetramer in crystal)

CTGGGCGGTAGAACCATAGTGACCCAGCCGTCTAC (ssDNA) [2008s]
binding result [1]: no binding | binding result [2]: no binding | binding result [3]: binds

AGAATGGCGGGAGAGCCTTAGCGACCATTCGTAC (ssDNA) [2021s]
binding result [4]: binds

ACGCGAGCAGGTGGTAGAATCATAATGGCCTGATC (ssDNA) [2004s]
binding result [5]: binds

B1: 2009 (2009s with 18-mer flanks on both ends) (ssDNA)
DNA: CGTACGGTCGACGCTAGCTAGGTGGCCAGAAGGTAGAACCATAGTGGTCTGGTACACGTGGAGCTCGGATCC
binding result [6]: binds

TAGGTGGCCAGAAGGTAGAACCATAGTGGTCTGGTA (ssDNA) [2009s]
binding result [7]: binds
